Assay results reported in the supplement of paper PMC10219994.
± gives the standard deviation of the averaged measurements.

B1: library; a variant is named by its letters at N, in order (parent)
chain: GAGACCGCAACTGAAAAGTTGTGGNNNNNATAGTGAGTCGCTGCCTGCAAAGACACAACT

Variants of: B1
Test: ligation selection enrichment (abundance after / before one-round selection) (fold); higher = more template-directed ligation activity
Settings: with T7Psub CACGGAUGCUAAUACGACUCACUAUA; MgCl2 25 mM; 42 °C; 4 h; pH 8.5
Method: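 Lib-N5 ligase ribozyme library: five randomized core nucleotides (including the GGA motif of N8-1) within the fixed N8-1 ribozyme flanks, transcribed by T7 RNA polymerase with a 5'-triphosphate. The library (0.75 uM) was reacted with substrate T7Psub (6 uM) in 50 mM EPPS pH 8.5 with 25 mM MgCl2 at 42 C for 4 h. Ligated products were PAGE-purified, reverse transcribed and MiSeq sequenced; enrichment = abundance after selection / abundance before selection, with two independent replicates. The full transcript is built from the printed template flanks.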

In order of falling ligation selection enrichment:
1. GAGACCGCAACTGAAAAGTTGTGGAAGATATAGTGAGTCGCTGCCTGCAAAGACACAACT [AAGAT]  16.6 ± 5
2. GAGACCGCAACTGAAAAGTTGTGGCAGATATAGTGAGTCGCTGCCTGCAAAGACACAACT [CAGAT]  9.36 ± 2
3. GAGACCGCAACTGAAAAGTTGTGGAAGCGATAGTGAGTCGCTGCCTGCAAAGACACAACT [AAGCG]  1.09 ± 0.27
4. GAGACCGCAACTGAAAAGTTGTGGTATAGATAGTGAGTCGCTGCCTGCAAAGACACAACT [TATAG]  0.995 ± 0.016
5. GAGACCGCAACTGAAAAGTTGTGGTATATATAGTGAGTCGCTGCCTGCAAAGACACAACT [TATAT]  0.817 ± 0.18
6. GAGACCGCAACTGAAAAGTTGTGGAATCGATAGTGAGTCGCTGCCTGCAAAGACACAACT [AATCG]  0.816 ± 0.11
7. GAGACCGCAACTGAAAAGTTGTGGAAGACATAGTGAGTCGCTGCCTGCAAAGACACAACT [AAGAC]  0.661 ± 0.019
8. GAGACCGCAACTGAAAAGTTGTGGAAGAGATAGTGAGTCGCTGCCTGCAAAGACACAACT [AAGAG]  0.632 ± 0.085
9. GAGACCGCAACTGAAAAGTTGTGGTAGTGATAGTGAGTCGCTGCCTGCAAAGACACAACT [TAGTG]  0.6007 ± 0.0042
10. GAGACCGCAACTGAAAAGTTGTGGAAGCTATAGTGAGTCGCTGCCTGCAAAGACACAACT [AAGCT]  0.56 ± 0.29
11. GAGACCGCAACTGAAAAGTTGTGGTAGCTATAGTGAGTCGCTGCCTGCAAAGACACAACT [TAGCT]  0.547 ± 0.17
12. GAGACCGCAACTGAAAAGTTGTGGGATAGATAGTGAGTCGCTGCCTGCAAAGACACAACT [GATAG]  0.538 ± 0.016
13. GAGACCGCAACTGAAAAGTTGTGGTAGCGATAGTGAGTCGCTGCCTGCAAAGACACAACT [TAGCG]  0.52 ± 0.11
14. GAGACCGCAACTGAAAAGTTGTGGAATCAATAGTGAGTCGCTGCCTGCAAAGACACAACT [AATCA]  0.454 ± 0.023
15. GAGACCGCAACTGAAAAGTTGTGGAATCTATAGTGAGTCGCTGCCTGCAAAGACACAACT [AATCT]  0.451 ± 0.12
16. GAGACCGCAACTGAAAAGTTGTGGGATATATAGTGAGTCGCTGCCTGCAAAGACACAACT [GATAT]  0.446 ± 0.11
17. GAGACCGCAACTGAAAAGTTGTGGAAGGAATAGTGAGTCGCTGCCTGCAAAGACACAACT [AAGGA]  0.431 ± 0.013
18. GAGACCGCAACTGAAAAGTTGTGGCAGAGATAGTGAGTCGCTGCCTGCAAAGACACAACT [CAGAG]  0.399 ± 0.09
19. GAGACCGCAACTGAAAAGTTGTGGAATAGATAGTGAGTCGCTGCCTGCAAAGACACAACT [AATAG]  0.39 ± 0.091
20. GAGACCGCAACTGAAAAGTTGTGGCAGACATAGTGAGTCGCTGCCTGCAAAGACACAACT [CAGAC]  0.374 ± 0.044
21. GAGACCGCAACTGAAAAGTTGTGGAATCCATAGTGAGTCGCTGCCTGCAAAGACACAACT [AATCC]  0.358 ± 0.014
22. GAGACCGCAACTGAAAAGTTGTGGAAGGGATAGTGAGTCGCTGCCTGCAAAGACACAACT [AAGGG]  0.331 ± 0.0073
23. GAGACCGCAACTGAAAAGTTGTGGAATATATAGTGAGTCGCTGCCTGCAAAGACACAACT [AATAT]  0.299 ± 0.032
24. GAGACCGCAACTGAAAAGTTGTGGAAGTGATAGTGAGTCGCTGCCTGCAAAGACACAACT [AAGTG]  0.294 ± 0.021
25. GAGACCGCAACTGAAAAGTTGTGGGAGTGATAGTGAGTCGCTGCCTGCAAAGACACAACT [GAGTG]  0.274 ± 0.035
26. GAGACCGCAACTGAAAAGTTGTGGGAGTAATAGTGAGTCGCTGCCTGCAAAGACACAACT [GAGTA]  0.27 ± 0.053
27. GAGACCGCAACTGAAAAGTTGTGGAAGTTATAGTGAGTCGCTGCCTGCAAAGACACAACT [AAGTT]  0.257 ± 0.055
28. GAGACCGCAACTGAAAAGTTGTGGAAGTAATAGTGAGTCGCTGCCTGCAAAGACACAACT [AAGTA]  0.24 ± 0.059
29. GAGACCGCAACTGAAAAGTTGTGGAAGCAATAGTGAGTCGCTGCCTGCAAAGACACAACT [AAGCA]  0.236 ± 0.065
30. GAGACCGCAACTGAAAAGTTGTGGGAGTTATAGTGAGTCGCTGCCTGCAAAGACACAACT [GAGTT]  0.235 ± 0.074
31. GAGACCGCAACTGAAAAGTTGTGGTAGTTATAGTGAGTCGCTGCCTGCAAAGACACAACT [TAGTT]  0.218 ± 0.078
32. GAGACCGCAACTGAAAAGTTGTGGTAGCAATAGTGAGTCGCTGCCTGCAAAGACACAACT [TAGCA]  0.21 ± 0.016
33. GAGACCGCAACTGAAAAGTTGTGGAAGGTATAGTGAGTCGCTGCCTGCAAAGACACAACT [AAGGT]  0.203 ± 0.15
34. GAGACCGCAACTGAAAAGTTGTGGTAGTAATAGTGAGTCGCTGCCTGCAAAGACACAACT [TAGTA]  0.19 ± 0.055
35. GAGACCGCAACTGAAAAGTTGTGGGATAAATAGTGAGTCGCTGCCTGCAAAGACACAACT [GATAA]  0.189 ± 0.036
36. GAGACCGCAACTGAAAAGTTGTGGAAGCCATAGTGAGTCGCTGCCTGCAAAGACACAACT [AAGCC]  0.188 ± 0.021
37. GAGACCGCAACTGAAAAGTTGTGGGATACATAGTGAGTCGCTGCCTGCAAAGACACAACT [GATAC]  0.188 ± 0.058
38. GAGACCGCAACTGAAAAGTTGTGGAATACATAGTGAGTCGCTGCCTGCAAAGACACAACT [AATAC]  0.183 ± 0.0067
39. GAGACCGCAACTGAAAAGTTGTGGTAGTCATAGTGAGTCGCTGCCTGCAAAGACACAACT [TAGTC]  0.182 ± 0.044
40. GAGACCGCAACTGAAAAGTTGTGGAATAAATAGTGAGTCGCTGCCTGCAAAGACACAACT [AATAA]  0.179 ± 0.049
41. GAGACCGCAACTGAAAAGTTGTGGGAGTCATAGTGAGTCGCTGCCTGCAAAGACACAACT [GAGTC]  0.168 ± 0.0064
42. GAGACCGCAACTGAAAAGTTGTGGTAGCCATAGTGAGTCGCTGCCTGCAAAGACACAACT [TAGCC]  0.16 ± 0.02
43. GAGACCGCAACTGAAAAGTTGTGGAAGTCATAGTGAGTCGCTGCCTGCAAAGACACAACT [AAGTC]  0.146 ± 0.018
44. GAGACCGCAACTGAAAAGTTGTGGAAGGCATAGTGAGTCGCTGCCTGCAAAGACACAACT [AAGGC]  0.146 ± 0.015
